Results published in the RNAGym collection of RNA variant scans (doi:10.7554/elife.90254).

B1: LINE1-full (parent)
chain: UACGUAGGUGGUUUUCCCCUGAUAGUGCUAAGGGGGCCUGGAAGUUUGGACUGGGCAGAGCUCAACACAGCGUGGCAAAGUGGCUGUGGCUAGACUGCCUCUCUGGAUUCCUCGUCACUCAGCAGGGCAUCUCUGAGAGAAAUGCC

Variants of: B1
Test: self-cleavage, relative activity (ratio to wild type); higher = more cleavage; in vitro, sequencing; the parent is a self-cleaving ribozyme

| Variant | self-cleavage |
| --- | --- |
| A22G A24G | 0.98 |
| U20C A22U | 1.12 |
| U45C G105A | 1.34 |
| A69U U108C | 0.06 |
| U45C C61U | 0.09 |
| C19U U73C | 0.85 |
| G44A A50G | 0.9 |
| U52C U143C | 1.67 |
| U119A U143A | 1.16 |
| U5C A140G | 1.12 |
| U109C C146U | 1.53 |
| C37U U143A | 1.14 |
| A64U U100A | 0.23 |
| G125A U130A | 1.61 |
| C63A A121U | 0 |
| U47C G72U | 2.51 |
| U26C A92G | 0.04 |
| U85A U115C | 0.13 |
| U102C C120A | 2.26 |
| C133U A138C | 1.74 |
| C110A U130C | 1.04 |
| U47C A65U | 0.1 |
| A30G U134C | 1.13 |
| U134C A140U | 1.02 |

| Variant | self-cleavage |
| --- | --- |
| G127A A138U | 1.5 |
| A31U G36U | 0.81 |
| A92G A129U | 0.17 |
| U5A U119C | 0.9 |
| U45A A107G | 1.44 |
| U5A U39G | 0.22 |
| C37G A67U | 0.12 |
| G44A A64G | 0.33 |
| A42C A138G | 1.05 |
| A42G G89A | 0.03 |
| C56A | 0.05 |
| C18U U134G | 1.95 |
| C28A U108C | 1.82 |
| A59U G114A | 0.54 |
| U96A A138G | 0.07 |
| A50U A69U | 0.07 |
| G74U U91C | 0.59 |
| A24G U96G | 0 |
| C111U U143C | 1.13 |
| A24U A138G | 0.94 |
| A129U | 1.4 |
| G93A | 0.04 |
| G89U | 0.01 |
| U96C G127A | 0.08 |

| Variant | self-cleavage |
| --- | --- |
| U46C U52C | 1.26 |
| C110U G122A | 1.09 |
| A92U C110U | 0.46 |
| A6G U62C | 0.18 |
| U13G U23C | 0.76 |
| U81A G114C | 2.67 |
| U39C C99U | 0.5 |
| C3U U62C | 0.15 |
| A64U G70A | 0.07 |
| U14G A121U | 0.95 |
| G10U G97A | 0.11 |
| U23C U108C | 1.38 |
| U29C U39G | 0.51 |
| U12G U119G | 0.8 |
| G44A C90G | 0.01 |
| A59G A121G | 0.23 |
| U46C G72U | 1.35 |
| U104A A142G | 1.43 |
| G97A U108C | 0.17 |
| U130C A140U | 0.32 |
| U1A U91C | 0.15 |
| A31U A65G | 0.16 |
| U73C C123U | 1.05 |
| A22G A42G | 0.93 |

| Variant | self-cleavage |
| --- | --- |
| G35A C95A | 0.07 |
| C37G U119C | 1.46 |
| A77U | 1.21 |
| A22U A117G | 0.65 |
| G4U U81C | 0.2 |
| A22U A138G | 1.09 |
| C3A | 0.69 |
| U26C U112A | 1.63 |
| A117U G137C | 2.13 |
| A43G A94U | 0.16 |
| A22G G122A | 0 |
| A64U A69G | 0.17 |
| A30U G34A | 1.13 |
| C71U A79U | 0.74 |
| G48A U85C | 0.1 |
| U119A A129G | 1.45 |
| U39C C131U | 1 |
| G25U U104A | 0.77 |
| A43C U45C | 0.51 |
| G49A U52C | 1.35 |
| G60C U115C | 0.02 |
| A78G A138C | 1.31 |
| A43C U87A | 0.09 |
| G21A G33A | 1.39 |

| Variant | self-cleavage |
| --- | --- |
| A30C U130A | 0.75 |
| U73A A124U | 1.4 |
| A57G U132C | 0.86 |
| C131U A138G | 1.36 |
| U39G A65G | 0.15 |
| G36U U108C | 1.62 |
| A50C U130C | 1.51 |
| A124U U134A | 1.31 |
| U26C A64U | 0.61 |
| U52A U85A | 0.1 |
| G74A U85A | 0.05 |
| A6U U119A | 1.74 |
| A92G A141G | 0.12 |
| C51U C145G | 1.28 |
| U15A A141G | 1.35 |
| U15A A141U | 1.07 |
| G53A C146U | 1.31 |
| A57U U81A | 0.05 |
| A77U U87C | 0.09 |
| G40A A42G | 1.07 |
| G11A A69G | 0.48 |
| A92U | 0.66 |
| A24U U87A | 0.11 |
| A6G G21U | 0.53 |

| Variant | self-cleavage |
| --- | --- |
| U39C | 1.14 |
| A24U G137U | 2.12 |
| U20C U100A | 0.81 |
| U9C U81A | 1.95 |
| U29G A78G | 0.87 |
| G88A C120U | 0.09 |
| C16U A138G | 2.06 |
| A65U A78G | 0.16 |
| U13G U108C | 1.31 |
| U81C U134A | 0.94 |
| U81C U134C | 1.36 |
| U9A U130C | 1.07 |
| A50G A69C | 0 |
| U45C G54U | 0.11 |
| A2G U39C | 0.32 |
| U29C C128U | 1.3 |
| U15A A59G | 0.08 |
| U62A A141G | 0.05 |
| U45A U91A | 0.46 |
| A30G A121U | 0.84 |
| U115A U119C | 2.02 |
| A78G C116U | 1.29 |
| U12G A140C | 0.48 |
| U5C A141U | 0.73 |

| Variant | self-cleavage |
| --- | --- |
| U23C C113A | 0.4 |
| G74U A107G | 0.51 |
| A59G C146U | 0.12 |
| U20G A67U | 0.11 |
| U85A G114A | 0.08 |
| A117U A140G | 1.43 |
| A124U A138G | 1.79 |
| A77G A107G | 2.08 |
| A67U A121U | 0.12 |
| U52C U100C | 2.25 |
| A67G G135A | 0.68 |
| U102A U115C | 1.88 |
| G40A U130G | 1.19 |
| A107G A124U | 1.27 |
| U52C C111A | 1.14 |
| U134A U143C | 0.63 |
| U102G A129G | 0.88 |
| A57G A78U | 1.62 |
| G125A C146U | 1.36 |
| G36C U87C | 0.25 |
| A77U U143G | 1.48 |
| U5C U15C | 1 |
| U46C C71U | 1.11 |
